In article PMC9604365 (2022):

T1: integrin αvβ5 (Homo sapiens, UniProt P06756)
T1 chain 1: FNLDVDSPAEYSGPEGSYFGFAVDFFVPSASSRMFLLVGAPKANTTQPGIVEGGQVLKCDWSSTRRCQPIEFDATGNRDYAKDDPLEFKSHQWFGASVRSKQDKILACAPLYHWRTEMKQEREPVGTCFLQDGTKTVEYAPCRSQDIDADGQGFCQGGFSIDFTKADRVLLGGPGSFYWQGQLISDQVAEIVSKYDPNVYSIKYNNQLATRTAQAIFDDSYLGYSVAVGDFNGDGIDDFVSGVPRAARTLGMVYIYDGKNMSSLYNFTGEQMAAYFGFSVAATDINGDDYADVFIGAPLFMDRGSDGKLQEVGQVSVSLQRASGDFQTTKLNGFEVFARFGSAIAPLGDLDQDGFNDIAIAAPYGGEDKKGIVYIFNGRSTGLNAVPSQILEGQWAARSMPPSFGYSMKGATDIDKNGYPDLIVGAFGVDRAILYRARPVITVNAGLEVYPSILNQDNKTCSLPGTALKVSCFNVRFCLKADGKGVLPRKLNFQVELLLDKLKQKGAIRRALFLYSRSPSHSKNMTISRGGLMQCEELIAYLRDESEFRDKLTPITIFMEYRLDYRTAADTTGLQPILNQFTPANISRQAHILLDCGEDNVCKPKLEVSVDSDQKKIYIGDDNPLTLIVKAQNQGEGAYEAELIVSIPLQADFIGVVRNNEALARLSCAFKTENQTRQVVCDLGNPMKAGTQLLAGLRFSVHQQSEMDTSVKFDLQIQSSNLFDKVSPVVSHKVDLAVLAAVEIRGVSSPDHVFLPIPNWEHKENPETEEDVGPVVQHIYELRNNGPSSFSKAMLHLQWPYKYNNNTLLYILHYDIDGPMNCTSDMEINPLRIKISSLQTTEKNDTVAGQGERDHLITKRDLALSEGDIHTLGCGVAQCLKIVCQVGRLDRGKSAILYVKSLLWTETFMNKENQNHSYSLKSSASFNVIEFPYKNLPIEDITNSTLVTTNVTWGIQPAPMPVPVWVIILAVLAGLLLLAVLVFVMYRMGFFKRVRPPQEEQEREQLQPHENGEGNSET
T1 chain 2: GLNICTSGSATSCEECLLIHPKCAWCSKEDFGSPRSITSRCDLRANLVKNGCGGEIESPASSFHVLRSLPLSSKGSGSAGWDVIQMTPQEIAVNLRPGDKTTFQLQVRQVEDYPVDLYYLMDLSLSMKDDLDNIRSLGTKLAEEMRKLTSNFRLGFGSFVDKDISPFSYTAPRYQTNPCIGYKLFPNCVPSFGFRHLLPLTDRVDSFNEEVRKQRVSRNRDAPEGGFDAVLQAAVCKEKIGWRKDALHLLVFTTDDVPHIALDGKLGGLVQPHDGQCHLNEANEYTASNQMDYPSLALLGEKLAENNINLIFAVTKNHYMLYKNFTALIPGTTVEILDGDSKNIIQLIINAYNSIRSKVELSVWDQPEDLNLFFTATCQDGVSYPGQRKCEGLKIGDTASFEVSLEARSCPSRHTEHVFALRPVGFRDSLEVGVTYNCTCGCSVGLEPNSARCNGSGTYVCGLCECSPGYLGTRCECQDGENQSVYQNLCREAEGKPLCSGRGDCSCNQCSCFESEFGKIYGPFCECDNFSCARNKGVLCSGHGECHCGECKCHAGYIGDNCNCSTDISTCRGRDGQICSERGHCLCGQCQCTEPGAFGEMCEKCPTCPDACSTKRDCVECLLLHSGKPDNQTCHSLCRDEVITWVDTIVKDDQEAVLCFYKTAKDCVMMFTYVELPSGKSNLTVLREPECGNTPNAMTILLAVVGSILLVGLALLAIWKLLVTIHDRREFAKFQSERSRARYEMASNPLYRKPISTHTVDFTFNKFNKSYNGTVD

T2: integrin αvβ3 (Homo sapiens, UniProt P06756)
T2 chain 1: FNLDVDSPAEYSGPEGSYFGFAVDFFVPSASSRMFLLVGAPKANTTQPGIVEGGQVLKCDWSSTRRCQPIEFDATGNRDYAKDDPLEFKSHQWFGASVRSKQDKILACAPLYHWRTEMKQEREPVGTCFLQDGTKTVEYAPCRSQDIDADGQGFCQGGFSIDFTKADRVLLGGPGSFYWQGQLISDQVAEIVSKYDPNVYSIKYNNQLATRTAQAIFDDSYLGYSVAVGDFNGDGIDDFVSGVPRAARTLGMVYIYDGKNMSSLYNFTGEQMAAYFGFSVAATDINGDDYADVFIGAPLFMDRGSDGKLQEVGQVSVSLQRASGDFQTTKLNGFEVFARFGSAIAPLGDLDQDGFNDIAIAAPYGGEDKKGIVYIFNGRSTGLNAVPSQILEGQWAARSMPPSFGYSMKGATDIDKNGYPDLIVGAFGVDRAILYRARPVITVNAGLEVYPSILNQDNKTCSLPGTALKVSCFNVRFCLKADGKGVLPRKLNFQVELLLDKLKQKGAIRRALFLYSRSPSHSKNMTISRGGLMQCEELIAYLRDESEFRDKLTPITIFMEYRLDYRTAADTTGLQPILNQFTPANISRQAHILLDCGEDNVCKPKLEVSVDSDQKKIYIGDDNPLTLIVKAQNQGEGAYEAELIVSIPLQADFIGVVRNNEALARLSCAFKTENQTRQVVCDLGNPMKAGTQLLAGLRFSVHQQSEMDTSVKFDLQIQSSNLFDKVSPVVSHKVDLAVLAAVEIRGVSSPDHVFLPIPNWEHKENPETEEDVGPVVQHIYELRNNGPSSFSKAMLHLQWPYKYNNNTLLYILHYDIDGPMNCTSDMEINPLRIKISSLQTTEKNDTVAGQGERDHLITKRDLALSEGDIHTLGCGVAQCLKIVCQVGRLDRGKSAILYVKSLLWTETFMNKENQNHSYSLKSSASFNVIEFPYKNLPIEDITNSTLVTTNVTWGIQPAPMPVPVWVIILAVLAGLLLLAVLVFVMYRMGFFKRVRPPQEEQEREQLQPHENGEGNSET
T2 chain 2: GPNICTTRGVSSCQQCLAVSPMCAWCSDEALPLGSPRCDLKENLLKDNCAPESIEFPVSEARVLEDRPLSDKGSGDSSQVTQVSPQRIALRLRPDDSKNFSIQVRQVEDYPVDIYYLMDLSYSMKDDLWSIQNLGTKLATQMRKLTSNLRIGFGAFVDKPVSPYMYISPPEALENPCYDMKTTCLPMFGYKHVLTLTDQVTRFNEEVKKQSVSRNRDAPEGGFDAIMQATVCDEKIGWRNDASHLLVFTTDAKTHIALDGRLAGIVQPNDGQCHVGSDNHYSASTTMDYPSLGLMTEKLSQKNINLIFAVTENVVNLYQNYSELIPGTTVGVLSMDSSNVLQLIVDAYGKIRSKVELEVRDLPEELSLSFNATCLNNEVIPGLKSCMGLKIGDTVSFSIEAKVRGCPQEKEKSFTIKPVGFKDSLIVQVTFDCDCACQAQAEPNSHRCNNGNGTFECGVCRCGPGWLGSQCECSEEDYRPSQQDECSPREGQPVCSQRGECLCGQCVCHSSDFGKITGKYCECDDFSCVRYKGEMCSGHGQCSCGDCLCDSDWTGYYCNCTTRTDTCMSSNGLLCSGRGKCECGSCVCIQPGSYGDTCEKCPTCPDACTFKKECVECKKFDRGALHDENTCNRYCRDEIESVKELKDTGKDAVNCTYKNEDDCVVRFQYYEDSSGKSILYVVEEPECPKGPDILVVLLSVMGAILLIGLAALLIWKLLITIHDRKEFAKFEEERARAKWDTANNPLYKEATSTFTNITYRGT


Tests used:
Assay in all cases: ELISA
DR5 = DR5 (Homo sapiens, UniProt O14763)
integrin αvβ5 = target: T1, integrin αvβ5
integrin αvβ3 = target: T2, integrin αvβ3

Kd (DR5)	Kd (integrin αvβ5)	Kd (integrin αvβ3)	Binder
1.66 nM	96.5 nM	1.89 nM	DR5-B-iRGD 114-281 (protein) VRERGPQRVAAHITGTRGRSNTLSSPNSKNEKALGRKINSWESSRSGHSFLSNLHLRNGELVIHEKGFYYIYSQTNFKFREEIKENTKNDKQMVQYIYKYTSYPDPILLMKSARNSCWSKDAEYGLYSIYQGGIFELKENDRIFVSVTNERLLDMHHEASFFGAFLVG
1.46 nM			DR5-B 114-281 (protein) VRERGPQRVAAHITGTRGRSNTLSSPNSKNEKALGRKINSWESSRSGHSFLSNLHLRNGELVIHEKGFYYIYSQTNFKFREEIKENTKNDKQMVQYIYKYTSYPDPILLMKSARNSCWSKDAEYGLYSIYQGGIFELKENDRIFVSVTNERLLDMHHEASFFGAFLVG
